Test results reported in IntAct's records for PubMed 11847120.

B1: POU domain, class 2, transcription factor 1 (Homo sapiens), P14859-1 (parent)
chain: MNNPSETSKPSMESGDGNTGTQTNGLDFQKQPVPVGGAISTAQAQAFLGHLHQVQLAGTSLQAAAQSLNVQSKSNEESGDSQQPSQPSQQPSVQAAIPQTQLMLAGGQITGLTLTPAQQQLLLQQAQAQAQLLAAAVQQHSASQQHSAAGATISASAATPMTQIPLSQPIQIAQDLQQLQQLQQQNLNLQQFVLVHPTTNLQPAQFIISQTPQGQQGLLQAQNLLTQLPQQSQANLLQSQPSITLTSQPATPTRTIAATPIQTLPQSQSTPKRIDTPSLEEPSDLEELEQFAKTFKQRRIKLGFTQGDVGLAMGKLYGNDFSQTTISRFEALNLSFKNMCKLKPLLEKWLNDAENLSSDSSLSSPSALNSPGIEGLSRRRKKRTSIETNIRVALEKSFLENQKPTSEEITMIADQLNMEKEVIRVWFCNRRQKEKRINPPSSGGTSSSPIKAIFPSPTSLVATTPSLVTSSAATTLTVSPVLPLTSAAVTNLSVTGTSDTTSNNTATVISTAPPASSAVTSPSLSPSPSASASTSEASSASETSTTQTTSTPLSSPLGTSQVMVTASGLQTAAAAALQGAAQLPANASLAAMAAAAGLNPSLMAPSQFAAGGALLSLNPGTLSGALSPALMSNSTLATIQALASGGSLPITSLDATGNLVFANAGGAPNIVTAPLFLNPQNLSLLTSNPVSLVSAAAASAGNSAPVASLHATSTSAESIQNSLFTVASASGAASTTTTASKAQ
partner: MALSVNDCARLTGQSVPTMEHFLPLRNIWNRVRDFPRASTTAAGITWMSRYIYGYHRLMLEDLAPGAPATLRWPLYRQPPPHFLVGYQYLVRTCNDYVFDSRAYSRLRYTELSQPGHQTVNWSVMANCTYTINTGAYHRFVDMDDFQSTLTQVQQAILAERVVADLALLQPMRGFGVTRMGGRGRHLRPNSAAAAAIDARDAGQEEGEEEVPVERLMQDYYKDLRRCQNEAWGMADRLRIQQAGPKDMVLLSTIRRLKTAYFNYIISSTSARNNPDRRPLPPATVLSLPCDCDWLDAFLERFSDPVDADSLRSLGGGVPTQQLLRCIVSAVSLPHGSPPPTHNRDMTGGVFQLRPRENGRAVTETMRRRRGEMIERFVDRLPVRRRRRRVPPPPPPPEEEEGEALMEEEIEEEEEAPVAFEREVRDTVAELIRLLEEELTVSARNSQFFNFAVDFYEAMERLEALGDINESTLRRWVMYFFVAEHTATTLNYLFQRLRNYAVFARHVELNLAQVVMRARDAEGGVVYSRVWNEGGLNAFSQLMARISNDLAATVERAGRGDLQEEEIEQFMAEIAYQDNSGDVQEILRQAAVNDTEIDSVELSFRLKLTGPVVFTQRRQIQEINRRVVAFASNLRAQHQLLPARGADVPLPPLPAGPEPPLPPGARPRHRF

Variants of: B1
Details: with term_ade05 PTP

Variant | effect of a mutation on the interaction
R431S | decreasing interaction strength
R380W | disrupting interaction strength
N429D | disrupting interaction strength
T410S | decreasing interaction strength
D414G;V425G | disrupting interaction strength
R383S | decreasing interaction strength
K382E;L394S | decreasing interaction strength
E400G;M418L | decreasing interaction strength
T384P | disrupting interaction strength
T384S | decreasing interaction strength
I412F;V425D | decreasing interaction strength
I373T;V425A | decreasing interaction strength
F427Y | disrupting interaction strength
E419G;K433E | decreasing interaction strength
Q415L;C428S | decreasing interaction strength
K382T | decreasing interaction strength
E408G | decreasing interaction strength
K403E | decreasing interaction strength
K403M | disrupting interaction strength
C428Y | disrupting interaction strength
V425G | disrupting interaction strength
K403Q;R424S | decreasing interaction strength
S377G;K420E | disrupting interaction strength
